Molecular target: the molecule itself
Test: analytical ultracentrifugation and chemical cross-linking

B1: refolded NspA (recombinant mature NspA of Neisseria meningitidis strain H44/76, without the 19 amino acid signal peptide) (other)
chain: EGASGFYVQADAAHAKASSSLGSAKGFSPRISAGYRINDLRFAVDYTRYKNYKAPSTDFKLYSIGASAIYDFDTQSPVKPYLGARLSLNRASVDLGGSDSFSQTSIGLGVLTGVSYAVTPNVDLDAGYRYNYIGKVNTVKNVRSGELSAGVRVKF
binding result: no binding
